Laboratory results: paper PMC11985968 (Nature Communications, 2025)
Values joined by “and” are separate entries in the source; they are usually repeats but may differ in a detail not shown here. Identical values can stand only once.

Biological target: T1, Mycobacterium tuberculosis UvrA (Mycobacterium tuberculosis, UniProt P9WQK7 1-972)
T1 sequence: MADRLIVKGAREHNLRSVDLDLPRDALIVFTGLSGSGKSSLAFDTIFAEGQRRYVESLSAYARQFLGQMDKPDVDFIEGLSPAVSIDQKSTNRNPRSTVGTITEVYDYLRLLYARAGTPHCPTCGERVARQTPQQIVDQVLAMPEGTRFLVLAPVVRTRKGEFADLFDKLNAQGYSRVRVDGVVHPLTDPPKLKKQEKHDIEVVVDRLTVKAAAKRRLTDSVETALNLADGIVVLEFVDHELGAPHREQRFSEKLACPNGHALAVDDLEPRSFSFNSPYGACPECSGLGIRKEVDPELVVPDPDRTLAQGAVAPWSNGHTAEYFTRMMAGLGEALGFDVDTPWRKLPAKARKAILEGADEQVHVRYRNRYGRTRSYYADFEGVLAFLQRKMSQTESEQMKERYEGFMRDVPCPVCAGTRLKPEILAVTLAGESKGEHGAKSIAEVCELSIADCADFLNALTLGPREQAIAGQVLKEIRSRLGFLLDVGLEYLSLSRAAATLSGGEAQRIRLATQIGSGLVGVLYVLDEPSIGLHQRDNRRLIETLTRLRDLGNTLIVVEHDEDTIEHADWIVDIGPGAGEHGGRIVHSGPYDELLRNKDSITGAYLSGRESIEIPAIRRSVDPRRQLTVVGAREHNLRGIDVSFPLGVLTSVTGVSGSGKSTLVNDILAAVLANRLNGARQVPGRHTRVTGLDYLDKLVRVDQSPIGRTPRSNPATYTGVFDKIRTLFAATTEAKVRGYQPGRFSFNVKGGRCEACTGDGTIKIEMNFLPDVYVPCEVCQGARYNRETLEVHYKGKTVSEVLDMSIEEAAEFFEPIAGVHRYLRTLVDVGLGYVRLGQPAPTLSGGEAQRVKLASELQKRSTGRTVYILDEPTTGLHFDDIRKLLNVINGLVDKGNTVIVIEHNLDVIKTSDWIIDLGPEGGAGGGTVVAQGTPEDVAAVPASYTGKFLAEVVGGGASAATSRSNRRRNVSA
Test: cryo-EM structure

B1: Mycobacterium tuberculosis UvrB (enzyme)
chain: VRAGGHFEVVSPHAPAGDQPAAIDELERRINAGERDVVLLGATGTGKSATTAWLIERLQRPTLVMAPNKTLAAQLANELREMLPHNAVEYFVSYYDYYQPEAYIAQTDTYIEKDSSINDDVERLRHSATSALLSRRDVVVVASVSCIYGLGTPQSYLDRSVELKVGEEVPRDGLLRLLVDVQYTRNDMSFTRGSFRVRGDTVEIIPSYEELAVRIEFFGDEIEALYYLHPLTGEVIRQVDSLRIFPATHYVAGPERMAHAVSAIEEELAERLAELESQGKLLEAQRLRMRTNYDIEMMRQVGFCSGIENYSRHIDGRGPGTPPATLLDYFPEDFLLVIDESHVTVPQIGGMYEGDISRKRNLVEYGFRLPSACDNRPLTWEEFADRIGQTVYLSATPGPYELSQTGGEFVEQVIRPTGLVDPKVVVKPTKGQIDDLIGEIRTRADADQRVLVTTLTKKMAEDLTDYLLEMGIRVRYLHSEVDTLRRVELLRQLRLGDYDVLVGINLLREGLDLPEVSLVAILDADKEGFLRSSRSLIQTIGRAARNVSGEVHMYADKITDSMREAIDETERRRAKQIAYNEANGIDPQPLRKKIADILDQVYREADDTAVVEVGGSGRNASRGRRAQGEPGRAVSAGVFEGRDTSAMPRAELADLIKDLTAQMMAAARDLQFELAARFRDEIADLKRELRGMDAAGLK
- stoichiometry N: 1 UvrB per UvrA dimer and 2 UvrB per UvrA dimer
